In US20250319163A1, “TREATMENT OF TYPE 2 DIABETES MELLITUS” (SANOFI, priority 2019, published 2025):

Key:
[1] = tested on: Japanese patients with type 2 diabetes mellitus inadequately controlled on oral antidiabetic drugs; test: EFC14114: treatment-emergent adverse events; conditions: Safety population; for Patients with any TEAE, %: overview of adverse event profile
[2] = tested on: Japanese patients with type 2 diabetes mellitus inadequately controlled on oral antidiabetic drugs; test: EFC14114: documented symptomatic hypoglycemia; assay type: in vivo, human; conditions: plasma glucose ≤70 mg/dL [[…]], on-treatment period; for Documented symptomatic hypoglycemia: patients with events, %: Safety population
[3] = tested on: Japanese patients with type 2 diabetes mellitus inadequately controlled on oral antidiabetic drugs; test: EFC14114: mean change in 2-hour postprandial plasma glucose during a standardized meal test; assay type: in vivo, human; conditions: mITT population, ANCOVA, LOCF
[4] = tested on: Japanese patients with type 2 diabetes mellitus inadequately controlled on oral antidiabetic drugs; test: EFC14114: mean change in HbA1c from baseline to Week 26; assay type: in vivo, human; conditions: on-treatment period, mITT population
[5] = tested on: Japanese patients with type 2 diabetes mellitus inadequately controlled on oral antidiabetic drugs; test: EFC14114: mean change in fasting plasma glucose from baseline to Week 26; assay type: in vivo, human; conditions: mITT population, MMRM
[6] = SGLT2 inhibitor use at screening: No
[7] = SGLT2 inhibitor use at screening: Yes

For “Gly(A21)-Arg(B31)-Arg(B32) human insulin [Insulin Glargine]”, the “Patients with TEAE: Any class, %” value [1, 6] was “(63.4%)”, the “Patients with TEAE: Back pain (PT), %” value [1, 6] was “(2.9%)” and the “Patients with TEAE: Constipation (PT), %” value [1, 6] was “(1.5%)”. The “Patients with TEAE: Dental caries (PT), %” value [1, 6] was “(2.4%)”, the “Patients with TEAE: Diarrhoea (PT), %” value [1, 6] was “(2.9%)” and the “Patients with TEAE: Dizziness (PT), %” value [1, 6] was “(3.4%)”. For the same substance, the “Patients with TEAE: Dyspepsia (PT), %” value [1, 6] was “(0.5%)”, the “Patients with TEAE: Fatigue (PT), %” value [1, 6] was “(2.0%)” and the “Patients with TEAE: Gastrointestinal disorders (SOC), %” value [1, 6] was “(15.6%)”. For the same substance, the “Patients with TEAE: General disorders and administration site conditions (SOC), %” value [1, 6] was “(7.3%)”, the “Patients with TEAE: Headache (PT), %” value [1, 6] was “(2.0%)” and the “Patients with TEAE: Hyperhidrosis (PT), %” value [1, 6] was “(2.9%)”. The “Patients with TEAE: Infections and infestations (SOC), %” value [1, 6] was “(35.6%)”, the “Patients with TEAE: Influenza (PT), %” value [1, 6] was “(1.5%)” and the “Patients with TEAE: Metabolism and nutrition disorders (SOC), %” value [1, 6] was “(2.9%)”. For the same substance, the “Patients with TEAE: Musculoskeletal and connective tissue disorders (SOC), %” value [1, 6] was “(12.2%)”, the “Patients with TEAE: Nasopharyngitis (PT), %” value [1, 6] was “(25.4%)” and the “Patients with TEAE: Nausea (PT), %” value [1, 6] was “(1.5%)”. The “Patients with TEAE: Nervous system disorders (SOC), %” value [1, 6] was “(9.3%)”, the “Patients with TEAE: Pharyngitis (PT), %” value [1, 6] was “(1.0%)” and the “Patients with TEAE: Skin and subcutaneous tissue disorders (SOC), %” value [1, 6] was “(9.8%)”. For the same substance, the “Patients with any TEAE leading to permanent treatment discontinuation, %” value [1, 6] was 0.5%, the “Patients with any serious TEAE, %” value [1, 6] was 3.4% and the “Patients with TEAE: Any class, %” value [1, 7] was “(64.3%)”. For the same substance, the “Patients with TEAE: Back pain (PT), %” value [1, 7] was “(5.4%)”, the “Patients with TEAE: Dental caries (PT), %” value [1, 7] was “(1.8%)” and the “Patients with TEAE: Gastrointestinal disorders (SOC), %” value [1, 7] was “(12.5%)”. For the same substance, the “Patients with TEAE: General disorders and administration site conditions (SOC), %” value [1, 7] was “(5.4%)”, the “Patients with TEAE: Headache (PT), %” value [1, 7] was “(5.4%)” and the “Patients with TEAE: Hyperhidrosis (PT), %” value [1, 7] was “(1.8%)”. The “Patients with TEAE: Infections and infestations (SOC), %” value [1, 7] was “(33.9%)”, the “Patients with TEAE: Influenza (PT), %” value [1, 7] was “(1.8%)” and the “Patients with TEAE: Metabolism and nutrition disorders (SOC), %” value [1, 7] was “(1.8%)”. The “Patients with TEAE: Musculoskeletal and connective tissue disorders (SOC), %” value [1, 7] was “(12.5%)”, the “Patients with TEAE: Nasopharyngitis (PT), %” value [1, 7] was “(17.9%)” and the “Patients with TEAE: Nausea (PT), %” value [1, 7] was “(3.6%)”. For the same substance, the “Patients with TEAE: Nervous system disorders (SOC), %” value [1, 7] was “(10.7%)”, the “Patients with TEAE: Pharyngitis (PT), %” value [1, 7] was “(5.4%)” and the “Patients with TEAE: Skin and subcutaneous tissue disorders (SOC), %” value [1, 7] was “(8.9%)”. The “Patients with any TEAE leading to permanent treatment discontinuation, %” value [1, 7] was 1.8%, the “Patients with any serious TEAE, %” value [1, 7] was 1.8% and the “Patients with any TEAE, %” value [1, 6] was 63.4%. The “Patients with any TEAE, %” value [1, 7] was 64.3%, the “Documented symptomatic hypoglycemia: Number of events” value [2, 6] was 62 and the “Documented symptomatic hypoglycemia: Number of events per patient year” value [2, 6] was 0.61. For the same substance, the “Documented symptomatic hypoglycemia: Number of patients with events per patient year” value [2, 6] was 0.28, the “Documented symptomatic hypoglycemia: patients with events, %” value [2, 6] was 14.1% and the “Documented symptomatic hypoglycemia: Number of events” value [2, 7] was 8. The “Documented symptomatic hypoglycemia: Number of events per patient year” value [2, 7] was 0.29, the “Documented symptomatic hypoglycemia: Number of patients with events per patient year” value [2, 7] was 0.11 and the “Documented symptomatic hypoglycemia: patients with events, %” value [2, 7] was 5.4%. The “Mean change in 2-hour postprandial plasma glucose during a standardized meal test from baseline to Week 26, LSMean (SE)” value [3, 6] was −1.29 (0.185) mmol/L, the “Mean change in 2-hour postprandial plasma glucose during a standardized meal test from baseline to Week 26, LSMean (SE)” value [3, 7] was −1.38 (0.363) mmol/L and the “Mean change in HbA1c from baseline to Week 26, LSMean (SE)” value [4, 6] was −0.83 (0.047) %. For the same substance, the “Mean change in HbA1c from baseline to Week 26, LSMean (SE)” value [4, 7] was −0.49 (0.091) %, the “Mean change in fasting plasma glucose from baseline to Week 26, LSMean (SE)” value [5, 6] was −1.46 (0.104) mmol/L and the “Mean change in fasting plasma glucose from baseline to Week 26, LSMean (SE)” value [5, 7] was −1.01 (0.205) mmol/L.
